In paper PMC11554844, “BEACH domain proteins function as cargo-sorting adaptors in secretory and endocytic pathways” (The Journal of Cell Biology, 2024) one finds response data, which are given here for 15 variants.

The chains are these.
B1: 3xFlag-EGFP-ALFY [human] / GST-CTLA4 (201–215) [human] (parent complex)
chain 1: MNMVKRIMGRPRQEECSPQDNALGLMHLRRLFTELCHPPRHMTQKEQEEKLYMMLPVFNRVFGNAPPNTMTEKFSDLLQFTTQVSRLMVTEIRRRASNKSTEAASRAIVQFLEINQSEEASRGWMLLTTINLLASSGQKTVDCMTTMSVPSTLVKCLYLFFDLPHVPEAVGGAQNELPLAERRGLLQKVFVQILVKLCSFVSPAEELAQKDDLQLLFSAITSWCPPYNLPWRKSAGEVLMTISRHGLSVNVVKYIHEKECLSTCVQNMQQSDDLSPLEIVEMFAGLSCFLKDSSDVSQTLLDDFRIWQGYNFLCDLLLRLEQAKEAESKDALKDLVNLITSLTTYGVSELKPAGITTGAPFLLPGFAVPQPAGKGHSVRNVQAFAVLQNAFLKAKTSFLAQIILDAITNIYMADNANYFILESQHTLSQFAEKISKLPEVQNKYFEMLEFVVFSLNYIPCKELISVSILLKSSSSYHCSIIAMKTLLKFTRHDYIFKDVFREVGLLEVMVNLLHKYAALLKDPTQALNEQGDSRNNSSVEDQKHLALLVMETLTVLLQGSNTNAGIFREFGGARCAHNIVKYPQCRQHALMTIQQLVLSPNGDDDMGTLLGLMHSAPPTELQLKTDILRALLSVLRESHRSRTVFRKVGGFVYITSLLVAMERSLSCPPKNGWEKVNQNQVFELLHTVFCTLTAAMRYEPANSHFFKTEIQYEKLADAVRFLGCFSDLRKISAMNVFPSNTQPFQRLLEEDVISIESVSPTLRHCSKLFIYLYKVATDSFDSRAEQIPPCLTSESSLPSPWGTPALSRKRHAYHSVSTPPVYPPKNVADLKLHVTTSSLQSSDAVIIHPGAMLAMLDLLASVGSVTQPEHALDLQLAVANILQSLVHTERNQQVMCEAGLHARLLQRCSAALADEDHSLHPPLQRMFERLASQALEPMVLREFLRLASPLNCGAWDKKLLKQYRVHKPSSLSYEPEMRSSMITSLEGLGTDNVFSLHEDNHYRISKSLVKSAEGSTVPLTRVKCLVSMTTPHDIRLHGSSVTPAFVEFDTSLEGFGCLFLPSLAPHNAPTNNTVTTGLIDGAVVSGIGSGERFFPPPSGLSYSSWFCIEHFSSPPNNHPVRLLTVVRRANSSEQHYVCLAIVLSAKDRSLIVSTKEELLQNYVDDFSEESSFYEILPCCARFRCGELIIEGQWHHLVLVMSKGMLKNSTAALYIDGQLVNTVKLHYVHSTPGGSGSANPPVVSTVYAYIGTPPAQRQIASLVWRLGPTHFLEEVLPSSNVTTIYELGPNYVGSFQAVCMPCKDAKSEGVVPSPVSLVPEEKVSFGLYALSVSSLTVARIRKVYNKLDSKAIAKQLGISSHENATPVKLIHNSAGHLNGSARTIGAALIGYLGVRTFVPKPVATTLQYVGGAAAILGLVAMASDVEGLYAAVKALVCVVKSNPLASKEMERIKGYQLLAMLLKKKRSLLNSHILHLTFSLVGTVDSGHETSIIPNSTAFQDLLCDFEVWLHAPYELHLSLFEHFIELLTESSEASKNAKLMREFQLIPKLLLTLRDMSLSQPTIAAISNVLSFLLQGFPSSNDLLRFGQFISSTLPTFAVCEKFVVMEINNEEKLDTGTEEEFGGLVSANLILLRNRLLDILLKLIYTSKEKTSINLQACEELVKTLGFDWIMMFMEEHLHSTTVTAAMRILVVLLSNQSILIKFKEGLSGGGWLEQTDSVLTNKIGTVLGFNVGRSAGGRSTVREINRDACHFPGFPVLQSFLPKHTNVPALYFLLMALFLQQPVSELPENLQVSVPVISCRSKQGCQFDLDSIWTFIFGVPASSGTVVSSIHNVCTEAVFLLLGMLRSMLTSPWQSEEEGSWLREYPVTLMQFFRYLYHNVPDLASMWMSPDFLCALAATVFPFNIRPYSEMVTDLDDEVGSPAEEFKAFAADTGMNRSQSEYCNVGTKTYLTNHPAKKFVFDFMRVLIIDNLCLTPASKQTPLIDLLLEASPERSTRTQQKEFQTYILDSVMDHLLAADVLLGEDASLPITSGGSYQVLVNNVFYFTQRVVDKLWQGMFNKESKLLIDFIIQLIAQSKRRSQGLSLDAVYHCLNRTILYQFSRAHKTVPQQVALLDSLRVLTVNRNLILGPGNHDQEFISCLAHCLINLHVGSNVDGFGLEAEARMTTWHIMIPSDIEPDGSYSQDISEGRQLLIKAVNRVWTELIHSKKQVLEELFKVTLPVNERGHVDIATARPLIEEAALKCWQNHLAHEKKCISRGEALAPTTQSKLSRVSSGFGLSKLTGSRRNRKESGLNKHSLSTQEISQWMFTHIAVVRDLVDTQYKEYQERQQNALKYVTEEWCQIECELLRERGLWGPPIGSHLDKWMLEMTEGPCRMRKKMVRNDMFYNHYPYVPETEQETNVASEIPSKQPETPDDIPQKKPARYRRAVSYDSKEYYMRLASGNPAIVQDAIVESSEGEAAQQEPEHGEDTIAKVKGLVKPPLKRSRSAPDGGDEENQEQLQDQIAEGSSIEEEEKTDNATLLRLLEEGEKIQHMYRCARVQGLDTSEGLLLFGKEHFYVIDGFTMTATREIRDIETLPPNMHEPIIPRGARQGPSQLKRTCSIFAYEDIKEVHKRRYLLQPIAVEVFSGDGRNYLLAFQKGIRNKVYQRFLAVVPSLTDSSESVSGQRPNTSVEQGSGLLSTLVGEKSVTQRWERGEISNFQYLMHLNTLAGRSYNDLMQYPVFPWILADYDSEEVDLTNPKTFRNLAKPMGAQTDERLAQYKKRYKDWEDPNGETPAYHYGTHYSSAMIVASYLVRMEPFTQIFLRLQGGHFDLADRMFHSVREAWYSASKHNMADVKELIPEFFYLPEFLFNSNNFDLGCKQNGTKLGDVILPPWAKGDPREFIRVHREALECDYVSAHLHEWIDLIFGYKQQGPAAVEAVNVFHHLFYEGQVDIYNINDPLKETATIGFINNFGQIPKQLFKKPHPPKRVRSRLNGDNAGISVLPGSTSDKIFFHHLDNLRPSLTPVKELKEPVGQIVCTDKGILAVEQNKVLIPPTWNKTFAWGYADLSCRLGTYESDKAMTVYECLSEWGQILCAICPNPKLVITGGTSTVVCVWEMGTSKEKAKTVTLKQALLGHTDTVTCATASLAYHIIVSGSRDRTCIIWDLNKLSFLTQLRGHRAPVSALCINELTGDIVSCAGTYIHVWSINGNPIVSVNTFTGRSQQIICCCMSEMNEWDTQNVIVTGHSDGVVRFWRMEFLQVPETPAPEPAEVLEMQEDCPEAQIGQEAQDEDSSDSEADEQSISQDPKDTPSQPSSTSHRPRAASCRATAAWCTDSGSDDSRRWSDQLSLDEKDGFIFVNYSEGQTRAHLQGPLSHPHPNPIEVRNYSRLKPGYRWERQLVFRSKLTMHTAFDRKDNAHPAEVTALGISKDHSRILVGDSRGRVFSWSVSDQPGRSAADHWVKDEGGDSCSGCSVRFSLTERRHHCRNCGQLFCQKCSRFQSEIKRLKISSPVRVCQNCYYNLQHERGSEDGPRNC
chain 2: YVKMPPTEPECEKQF

The variants in this assay derive from B1. Briefly: GST pulldown, anti-flag western blot quantification; HeLa 3xFlag-EGFP-ALFY cell lysate; three independent experiments; read off a plot. For orientation: A western blot detects proteins with antibodies after separation by electrophoresis.
Consider chain 2 AVKMPPTEPECEKQF, for which the response is approximately 1.4.
As for chain 2 YAKMPPTEPECEKQF, the figure is approximately 1.7; as for chain 2 YVKMPPTEPECEKAF, approximately 0.68; as for chain 2 YVKMPPTEPECEKQA, approximately 1.1.
As for chain 2 YVKMPPTEPECAKQF, the figure is approximately 1.2; as for chain 2 YVKAPPTEPECEKQF, approximately 1.6; as for chain 2 YVKMPPTEPACEKQF, approximately 1.2.
The same measure for chain 2 YVKMPPTEPECEAQF: approximately 0.5; for chain 2 YVKMPPTEPEAEKQF: approximately 0.78; for chain 2 YVKMPPAEPECEKQF: approximately 1.5.
In the case of chain 2 YVAMPPTEPECEKQF, the response is approximately 0.55.
The same measure for chain 2 YVKMPPTAPECEKQF: approximately 1.4; for chain 2 YVKMPATEPECEKQF: approximately 0.67.
The same measure for chain 2 YVKMPPTEAECEKQF: approximately 0.77; for chain 2 YVKMAPTEPECEKQF: approximately 0.87.
